Test [1] deals with extracellular domain of human β-Klotho (sKLB) (human) (UniProt Q86Z14). In words: MST competition; GST-FGF21CT variant titrated into a constant sKLB/fl-FGF21 mixture.
Test [2] addresses T1, extracellular domain of human β-Klotho (sKLB) (human, UniProt Q86Z14 53-983).
T1 construct: Made in HEK293-EBNA cells; also called WT sKLB; not shown: remnant of the TEV protease cleavage site / four-Gly linker left after the Fc tag was cut off
T1 sequence: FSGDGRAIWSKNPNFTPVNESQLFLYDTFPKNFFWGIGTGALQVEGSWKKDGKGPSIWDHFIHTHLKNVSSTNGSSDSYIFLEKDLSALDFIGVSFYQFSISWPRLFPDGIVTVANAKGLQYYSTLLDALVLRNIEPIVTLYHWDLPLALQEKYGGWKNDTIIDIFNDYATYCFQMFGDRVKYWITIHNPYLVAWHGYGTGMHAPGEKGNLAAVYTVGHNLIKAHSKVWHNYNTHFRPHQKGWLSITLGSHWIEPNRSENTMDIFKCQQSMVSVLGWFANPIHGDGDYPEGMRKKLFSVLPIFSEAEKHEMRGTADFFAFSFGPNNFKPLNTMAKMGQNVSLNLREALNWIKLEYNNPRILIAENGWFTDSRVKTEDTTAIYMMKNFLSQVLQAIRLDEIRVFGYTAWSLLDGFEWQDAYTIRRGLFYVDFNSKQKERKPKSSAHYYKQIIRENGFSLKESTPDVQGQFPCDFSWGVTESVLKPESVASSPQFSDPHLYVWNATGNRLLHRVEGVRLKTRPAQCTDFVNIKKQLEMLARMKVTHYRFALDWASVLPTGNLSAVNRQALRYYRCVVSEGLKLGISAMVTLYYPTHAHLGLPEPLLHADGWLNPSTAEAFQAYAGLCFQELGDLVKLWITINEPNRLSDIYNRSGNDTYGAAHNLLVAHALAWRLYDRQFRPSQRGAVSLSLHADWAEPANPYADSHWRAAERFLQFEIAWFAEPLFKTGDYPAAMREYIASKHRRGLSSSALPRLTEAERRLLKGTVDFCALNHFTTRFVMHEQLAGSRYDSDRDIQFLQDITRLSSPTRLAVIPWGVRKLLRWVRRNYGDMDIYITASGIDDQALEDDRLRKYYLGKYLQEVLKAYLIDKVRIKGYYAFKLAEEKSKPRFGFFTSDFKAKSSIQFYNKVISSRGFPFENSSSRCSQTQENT
In words: quantitative binding studies, method not given.

Test [3] has as its target T1, extracellular domain of human β-Klotho …. In words: MST competition; GST-FGF21CT titrated into a constant sKLB/fl-FGF21 mixture. As to the method:
(§1) All MST measurements were performed using the Monolith NT.115Pico instrument (NanoTemper Technologies) with Monolith NT.115 MST Premium Coated Capillaries. Purified FGF21 was fluorescently labeled using the Monolith Protein Labeling Kit RED-NHS (NanoTemper Technologies) according to the instruction provided by the manufacturer. […] The thermophoretic movements of fl-FGF21 in each samples were monitored (LED 20%, IR laser 20%,) and the normalized fluorescence intensities (FNorm), defined as Fₕₒₜ/Fcold (where Fcold and Fₕₒₜ refer to the fluorescence intensities averaged over […] before IR laser is on and 29 s after IR laser is on, respectively), for each samples were plotted against the concentrations of sKLB. For the competition assays, the thermophoresis of fl-FGF21 was measured for samples where the concentration of fl-FGF21 and sKLB mixture was kept constant with the concentrations of GST-FGF21CT varying from 2.1 nM to 35000 nM. All the data were analyzed with the MO Affinity Analysis software (NanoTemper Technologies) provided by the manufacturer.
(§2) To measure binding of the C-terminal fragment of FGF21 (FGF21CT) to sKLB, an MST-based competition assay was used, in which GST-fused FGF21CT (GST-FGF21CT) was titrated into a constant sKLB/fl-FGF21 mixture (FIG. 6C).

Test [4] shares this target. Description: SPR; GST-FGF21CT immobilized on a sensor chip using anti-GST, sKLB in solution. (In general: In SPR one partner is held on a chip, and binding of the other changes the refractive index at the surface.)
Test [5] has the same target. Description: MST competition: GST-FGF21CT titrated into a constant mixture of sKLB and fluorescently labelled FGF21 (competitor: fl-FGF21). As to the method:
as §1, §2

For test [6] the target is unchanged. The description is as above. As to the method:
as §1, §2
This is another data set of the same source.

Test [7] has the same target. In words: MST; fluorescently labeled FGFR1cD2D3.
For test [8] the target is unchanged. In words: SPR and/or MST.
For another test, the target named is T2, β-Klotho lacking D2 (human, UniProt Q86Z14 53-507).
T2 sequence: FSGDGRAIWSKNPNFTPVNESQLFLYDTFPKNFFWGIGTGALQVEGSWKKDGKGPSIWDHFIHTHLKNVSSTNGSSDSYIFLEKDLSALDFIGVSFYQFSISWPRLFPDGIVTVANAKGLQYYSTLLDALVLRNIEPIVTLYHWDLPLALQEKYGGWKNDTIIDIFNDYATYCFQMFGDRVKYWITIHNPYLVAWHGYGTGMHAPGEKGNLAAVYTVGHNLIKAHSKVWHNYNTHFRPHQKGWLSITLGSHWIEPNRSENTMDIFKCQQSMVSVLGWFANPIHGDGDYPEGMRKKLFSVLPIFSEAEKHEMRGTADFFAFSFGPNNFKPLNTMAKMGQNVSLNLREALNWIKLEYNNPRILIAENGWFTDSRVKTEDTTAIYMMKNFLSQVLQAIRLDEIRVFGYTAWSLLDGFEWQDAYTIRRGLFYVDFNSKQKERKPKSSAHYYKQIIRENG
Description: SPR and/or MST.

Test [9] has as its target T1, extracellular domain of human β-Klotho …. Description: MST; 35 nM fluorescently labeled FGF21, sKLB titrated 0.03-1000 nM. How it is done:
as §1
The affinity of FGF21 for sKLB was measured using MicroScale Thermophoresis or MST (Seidel et al., 2013, methods 59:301-315), where the thermophoretic movement of fluorescently-labeled FGF21 (fl-FGF21) in solution is monitored upon sKLB binding.

Test [10] has the same target. Description: MST. As to the method: The thermophoretic movements of fl-FGF21 in each samples were monitored (LED 20%, IR laser 20%,) and the normalized fluorescence intensities (FNorm), defined as Fₕₒₜ/Fcold (where Fcold and Fₕₒₜ refer to the fluorescence intensities averaged over […] before IR laser is on and 29 s after IR laser is on, respectively), for each samples were plotted against the concentrations of sKLB. For the competition assays, the thermophoresis of fl-FGF21 was measured for samples where the concentration of fl-FGF21 and sKLB mixture was kept constant with the concentrations of GST-FGF21CT varying from 2.1 nM to 35000 nM. All the data were analyzed with the MO Affinity Analysis software (NanoTemper Technologies) provided by the manufacturer.
As endocrine FGFs play important roles in the control of metabolic processes, a variety of approaches have been utilized to develop novel therapeutics that retain (and exceed in potency) the beneficial stimulatory responses of FGF19 and or FGF21 while minimizing the side effects caused by these two hormones. […] In certain non-limiting embodiments, potency of FGF21 can be enhanced by introducing mutations into its C-terminal tail that strengthen interactions with β-Klotho. An L194F mutation was introduced to increase hydrophobic interactions with neighboring amino acids in site 1 of β-Klotho. […]

Test [11] addresses T3, full-length human β-Klotho (KLB), C-terminal HA-tagged, on L6 cells (human, UniProt Q86Z14 53-1044).
T3 sequence: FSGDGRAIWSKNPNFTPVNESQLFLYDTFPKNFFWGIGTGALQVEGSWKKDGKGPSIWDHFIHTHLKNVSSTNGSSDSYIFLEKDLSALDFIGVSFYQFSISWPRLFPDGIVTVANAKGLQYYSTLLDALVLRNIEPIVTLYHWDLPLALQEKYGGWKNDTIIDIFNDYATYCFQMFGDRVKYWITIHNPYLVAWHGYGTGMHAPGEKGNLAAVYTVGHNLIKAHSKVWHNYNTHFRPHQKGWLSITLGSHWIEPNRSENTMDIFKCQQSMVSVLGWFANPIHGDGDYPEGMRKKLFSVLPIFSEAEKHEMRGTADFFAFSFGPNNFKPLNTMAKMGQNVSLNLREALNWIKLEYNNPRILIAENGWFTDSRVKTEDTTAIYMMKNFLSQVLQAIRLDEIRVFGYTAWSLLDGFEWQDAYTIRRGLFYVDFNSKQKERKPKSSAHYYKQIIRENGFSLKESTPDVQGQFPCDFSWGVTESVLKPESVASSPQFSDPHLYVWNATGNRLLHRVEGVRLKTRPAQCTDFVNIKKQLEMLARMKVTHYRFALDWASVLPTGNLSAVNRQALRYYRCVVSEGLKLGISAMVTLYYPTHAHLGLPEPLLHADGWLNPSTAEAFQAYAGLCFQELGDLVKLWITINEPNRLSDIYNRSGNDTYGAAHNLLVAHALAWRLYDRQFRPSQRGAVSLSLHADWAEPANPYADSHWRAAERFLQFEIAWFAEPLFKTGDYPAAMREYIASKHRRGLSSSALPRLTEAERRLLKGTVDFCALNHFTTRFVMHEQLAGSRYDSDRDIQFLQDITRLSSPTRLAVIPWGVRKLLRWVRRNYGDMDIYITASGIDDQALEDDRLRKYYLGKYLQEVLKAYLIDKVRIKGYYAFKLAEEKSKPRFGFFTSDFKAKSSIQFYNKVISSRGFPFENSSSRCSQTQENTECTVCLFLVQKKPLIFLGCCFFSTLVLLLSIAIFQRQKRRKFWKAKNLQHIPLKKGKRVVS
Description: cell-based or functional assay.

Eleven molecules from patent publication US20200131257A1 (YALE UNIVERSITY, published 2020) can be followed below.

A word on the IC50: it is the concentration that gives 50% inhibition. A word on the Kd: it is the free concentration of one partner at which half of the binding sites on the other are occupied at equilibrium, for simple one-to-one binding.

Values joined by “and” are separate entries in the source; they are usually repeats but may differ in a detail not shown here. Equal entries are not always repeated. Where two headings read alike, the source gives them in different places. No end group written: not given here.

As to “GST-FGF21CT P193A (from UniProt Q9NSA1 169-209)”, the IC50 in test [1] was found to be 7.16 µM.
Same read-out and setting: with “GST-FGF21CT D192A (from UniProt Q9NSA1 169-209)” the figure was 15.9 µM.
On the same count and under the same terms, with “GST-FGF21CT S204A (from UniProt Q9NSA1 169-209)” the figure was 5.99 µM; with “GST-FGF21CT Y207A (from UniProt Q9NSA1 169-209)”, 6.63 µM; with “GST-FGF21CT S206A (from UniProt Q9NSA1 169-209)”, 5.56 µM.

B1: FGF21CT synthetic peptide (C-terminal region of FGF21, residues 174-209 with P199G and A208E) (peptide)
peptide: LPEPPGILAPQPPDVGSSDPLSMVGGSQGRSPSYES
notes: also called FGF21CT peptide
With B1, the Kd in [2] turned out to be 0.043 µM.

B2: GST-fused FGF21CT (GST-FGF21CT), wild type (other)
chain: GLPPALPEPPGILAPQPPDVGSSDPLSMVGPSQGRSPSYAS
modifications: not fully specified (N-terminus); also: fused to GST tag, letters not given here
notes: also called WT; not shown: glutathione S-transferase tag and linker encoded by the pGEX-4T-1 vector (GE Healthcare)
For the molecule B2, the IC50 in test [3] turned out to be 0.704 µM. In test [4], this molecule gave an equilibrium dissociation constant (Kd) of 0.253 µM. Moreover, the “IC50 (read off the curve)” value in test [5] and in [6] was around 0.7 µM in each case.

B3: FGFR1cD2D3 (ligand binding region of FGFR1c) (receptor, UniProt P11362 142-365, looked up)
chain: DNTKPNRMPVAPYWTSPEKMEKKLHAVPAAKTVKFKCPSSGTPNPTLRWLKNGKEFKPDHRIGGYKVRYATWSIIMDSVVPSDKGNYTCIVENEYGSINHTYQLDVVERSPHRPILQAGLPANKTVALGSNVEFMCKVYSDPQPHIQWLKHIEVNGSKIGPDNLPYVQILKTAGVNTTDKEMEVLHLRNVSFEDAGEYTCLAGNSIGLSHHSAWLTVLEALEER
modifications: fluorescently labeled in the MST assay
notes: domain: D2D3; the c splice form of FGFR1; also called FGFR1cD2D3 extracellular region
With B3, the Kd in test [7] is 0.94 µM and ~1 µM.

B4: FGF21 lacking the 10 C-terminal amino acids (ligand)
chain: HPIPDSSPLLQFGGQVRQRYLYTDDAQQTEAHLEIREDGTVGGAADQSPESLLQLKALKPGVIQILGVKTSRFLCQRPDGALYGSLHFDPEACSFRELLLEDGYNVYQSEAHGLPLHLPGNKSPHRDPAPRGPARFLPLPGLPPALPEPPGILAPQPPDVGSSDPLSMVGP
In the case of B4, the binding result in test [8] is given as “no binding”.

B5: recombinant human FGF21 (amino acids 29-209 with L126R, P199G and A208E, N-terminal His6 tag) (ligand)
chain: HPIPDSSPLLQFGGQVRQRYLYTDDAQQTEAHLEIREDGTVGGAADQSPESLLQLKALKPGVIQILGVKTSRFLCQRPDGALYGSLHFDPEACSFRERLLEDGYNVYQSEAHGLPLHLPGNKSPHRDPAPRGPARFLPLPGLPPALPEPPGILAPQPPDVGSSDPLSMVGGSQGRSPSYES
modifications: fluorescently labeled with Monolith Protein Labeling Kit RED-NHS (fl-FGF21) in the MST assays
notes: Expressed in E. coli; also called fl-FGF21; wild-type FGF21; not shown: N-terminal His6 tag from the pET28a vector
For the molecule B5, the binding result in the test with β-Klotho lacking D2 is given as “no binding”. The same molecule registered a Kd in [9] of 0.0435 µM.

B6: R203W/L194F-mutated FGF21 (FGF21WF) (ligand)
chain: HPIPDSSPLLQFGGQVRQRYLYTDDAQQTEAHLEIREDGTVGGAADQSPESLLQLKALKPGVIQILGVKTSRFLCQRPDGALYGSLHFDPEACSFRELLLEDGYNVYQSEAHGLPLHLPGNKSPHRDPAPRGPARFLPLPGLPPALPEPPGILAPQPPDVGSSDPFSMVGPSQGWSPSYAS
notes: also called FGF21 carrying a double L194F/R203W mutations
On to B6, for which, in test [10], the Kd was 0.0034 µM and the “fold tighter binding than wild-type FGF21” value is above 10 fold. Further, the “stimulation of FGFR1c tyrosine phosphorylation in L6 cells coexpressing β-Klotho and FGFR1c” value in test [11] is around 10 fold.
